The target in assay [1] is wild-type FLT3 ligand (FLWT). In words: SEC-MALS; ligand mixed with FLT3_(D1-D5) (20% molar excess of FL_(L27D)); Superdex 200 Increase, HBS (20 mM HEPES pH 7.4, 150 mM NaCl), 0.5 ml/min, 25 °C; glycoprotein conjugate analysis; N for FLWT counts FLT3 molecules for each dimeric FLWT. A general note: SEC sorts molecules by how far they enter the pores of the column.
Assay [2] addresses human FLT3 domains 1-5 (FLT3_(D1-D5)) (human) (UniProt P36888). The assay is described as above.

As usually defined, the stoichiometry N is a count of units in the complex or per binding partner. With “human FLT3 domains 1-5 (FLT3_(D1-D5)) (from UniProt P36888 27-541) (domain or fragment)”, in assay [1], the stoichiometry N was found to be 2.

B1: FLT3 ligand Leu27Asp mutant (FL_(L27D)), as produced (ligand)
chain: TQDCSFQHSPISSDFAVKIRELSDYLDQDYPVTVASNLQDEELCGGLWRLVLAQRWMERLKTVAGSKMQGLLERVNTEIHFVTKCAFQPPPSCLRFVQTNISRLLQETSEQLVALKPWITRQNFSRCLELQCQP
The molecule B1 displayed a stoichiometry N in assay [2] of 1.
